{"source": "the Human Domainome abundance scans (Beltran et al. 2025)", "parents": {"B1": {"name": "Homeobox protein SIX3, residues 212 to 262; numbered along this chain, O95343 (parent)", "chain": "CFKERTRSLLREWYLQDPYPNPSKKRELAQATGLTPTQVGNWFKNRRQRDR"}}, "note": "± gives the uncertainty stated by the source."}
{"variants_of": "B1", "experiment": "abundance fitness (aPCA) (normalised: wild type 0, dead -1); higher = more abundant; growth selection in yeast, the domain comes from the species named", "details": "Homo sapiens"}
{"variant": "CFKERTRSKLREWYLQDPYPNPSKKRELAQATGLTPTQVGNWFKNRRQRDR", "note": "[L9K]", "abundance fitness": "-0.226 ± 0.073"}
{"variant": "CFKERTRSHLREWYLQDPYPNPSKKRELAQATGLTPTQVGNWFKNRRQRDR", "note": "[L9H]", "abundance fitness": "-0.417 ± 0.16"}
{"variant": "CFKERTRSPLREWYLQDPYPNPSKKRELAQATGLTPTQVGNWFKNRRQRDR", "note": "[L9P]", "abundance fitness": "-0.644 ± 0.1"}
{"variant": "CFKERTRSDLREWYLQDPYPNPSKKRELAQATGLTPTQVGNWFKNRRQRDR", "note": "[L9D]", "abundance fitness": "-0.825 ± 0.13"}
{"variant": "CFKERTRSYLREWYLQDPYPNPSKKRELAQATGLTPTQVGNWFKNRRQRDR", "note": "[L9Y]", "abundance fitness": "-0.001 ± 0.11"}
{"variant": "CFKERTRSALREWYLQDPYPNPSKKRELAQATGLTPTQVGNWFKNRRQRDR", "note": "[L9A]", "abundance fitness": "-0.43 ± 0.064"}
{"variant": "CFKERTRSCLREWYLQDPYPNPSKKRELAQATGLTPTQVGNWFKNRRQRDR", "note": "[L9C]", "abundance fitness": "-0.694 ± 0.18"}
{"variant": "CFKERTRSWLREWYLQDPYPNPSKKRELAQATGLTPTQVGNWFKNRRQRDR", "note": "[L9W]", "abundance fitness": "-0.632 ± 0.05"}
{"variant": "CFKERTRSNLREWYLQDPYPNPSKKRELAQATGLTPTQVGNWFKNRRQRDR", "note": "[L9N]", "abundance fitness": "-0.8 ± 0.15"}
{"variant": "CFKERTRSTLREWYLQDPYPNPSKKRELAQATGLTPTQVGNWFKNRRQRDR", "note": "[L9T]", "abundance fitness": "-0.138 ± 0.054"}
{"variant": "CFKERTRSMLREWYLQDPYPNPSKKRELAQATGLTPTQVGNWFKNRRQRDR", "note": "[L9M]", "abundance fitness": "-0.199 ± 0.11"}
{"variant": "CFKERTRSILREWYLQDPYPNPSKKRELAQATGLTPTQVGNWFKNRRQRDR", "note": "[L9I]", "abundance fitness": "-0.095 ± 0.084"}
{"variant": "CFKERTRSSLREWYLQDPYPNPSKKRELAQATGLTPTQVGNWFKNRRQRDR", "note": "[L9S]", "abundance fitness": "-0.733 ± 0.074"}
{"variant": "CFKERTRSFLREWYLQDPYPNPSKKRELAQATGLTPTQVGNWFKNRRQRDR", "note": "[L9F]", "abundance fitness": "-0.51 ± 0.22"}
{"variant": "CFKERTRSQLREWYLQDPYPNPSKKRELAQATGLTPTQVGNWFKNRRQRDR", "note": "[L9Q]", "abundance fitness": "-0.266 ± 0.067"}
{"variant": "CFKERTRSELREWYLQDPYPNPSKKRELAQATGLTPTQVGNWFKNRRQRDR", "note": "[L9E]", "abundance fitness": "-0.481 ± 0.066"}
{"variant": "CFKERTRSVLREWYLQDPYPNPSKKRELAQATGLTPTQVGNWFKNRRQRDR", "note": "[L9V]", "abundance fitness": "-0.071 ± 0.052"}
{"variant": "CFKERTRSRLREWYLQDPYPNPSKKRELAQATGLTPTQVGNWFKNRRQRDR", "note": "[L9R]", "abundance fitness": "-0.369 ± 0.063"}
{"variant": "CFKERTRSGLREWYLQDPYPNPSKKRELAQATGLTPTQVGNWFKNRRQRDR", "note": "[L9G]", "abundance fitness": "-0.726 ± 0.05"}
{"variant": "CFKERTRSLLTEWYLQDPYPNPSKKRELAQATGLTPTQVGNWFKNRRQRDR", "note": "[R11T]", "abundance fitness": "0.106 ± 0.077"}
{"variant": "CFKERTRSLLEEWYLQDPYPNPSKKRELAQATGLTPTQVGNWFKNRRQRDR", "note": "[R11E]", "abundance fitness": "-0.047 ± 0.085"}
{"variant": "CFKERTRSLLDEWYLQDPYPNPSKKRELAQATGLTPTQVGNWFKNRRQRDR", "note": "[R11D]", "abundance fitness": "-0.22 ± 0.058"}
{"variant": "CFKERTRSLLIEWYLQDPYPNPSKKRELAQATGLTPTQVGNWFKNRRQRDR", "note": "[R11I]", "abundance fitness": "0.004 ± 0.075"}
{"variant": "CFKERTRSLLKEWYLQDPYPNPSKKRELAQATGLTPTQVGNWFKNRRQRDR", "note": "[R11K]", "abundance fitness": "-0.138 ± 0.093"}
{"variant": "CFKERTRSLLMEWYLQDPYPNPSKKRELAQATGLTPTQVGNWFKNRRQRDR", "note": "[R11M]", "abundance fitness": "0.077 ± 0.065"}
{"variant": "CFKERTRSLLFEWYLQDPYPNPSKKRELAQATGLTPTQVGNWFKNRRQRDR", "note": "[R11F]", "abundance fitness": "-0.061 ± 0.073"}
{"variant": "CFKERTRSLLGEWYLQDPYPNPSKKRELAQATGLTPTQVGNWFKNRRQRDR", "note": "[R11G]", "abundance fitness": "-0.302 ± 0.054"}
{"variant": "CFKERTRSLLQEWYLQDPYPNPSKKRELAQATGLTPTQVGNWFKNRRQRDR", "note": "[R11Q]", "abundance fitness": "-0.23 ± 0.09"}
{"variant": "CFKERTRSLLLEWYLQDPYPNPSKKRELAQATGLTPTQVGNWFKNRRQRDR", "note": "[R11L]", "abundance fitness": "-0.026 ± 0.058"}
{"variant": "CFKERTRSLLSEWYLQDPYPNPSKKRELAQATGLTPTQVGNWFKNRRQRDR", "note": "[R11S]", "abundance fitness": "-0.021 ± 0.059"}
{"variant": "CFKERTRSLLHEWYLQDPYPNPSKKRELAQATGLTPTQVGNWFKNRRQRDR", "note": "[R11H]", "abundance fitness": "-0.227 ± 0.13"}
{"variant": "CFKERTRSLLYEWYLQDPYPNPSKKRELAQATGLTPTQVGNWFKNRRQRDR", "note": "[R11Y]", "abundance fitness": "-0.408 ± 0.24"}
{"variant": "CFKERTRSLLWEWYLQDPYPNPSKKRELAQATGLTPTQVGNWFKNRRQRDR", "note": "[R11W]", "abundance fitness": "-0.07 ± 0.063"}
{"variant": "CFKERTRSLLPEWYLQDPYPNPSKKRELAQATGLTPTQVGNWFKNRRQRDR", "note": "[R11P]", "abundance fitness": "-0.514 ± 0.15"}
{"variant": "CFKERTRSLLNEWYLQDPYPNPSKKRELAQATGLTPTQVGNWFKNRRQRDR", "note": "[R11N]", "abundance fitness": "-0.111 ± 0.071"}
{"variant": "CFKERTRSLLVEWYLQDPYPNPSKKRELAQATGLTPTQVGNWFKNRRQRDR", "note": "[R11V]", "abundance fitness": "-0.141 ± 0.053"}
{"variant": "CFKERTRSLLCEWYLQDPYPNPSKKRELAQATGLTPTQVGNWFKNRRQRDR", "note": "[R11C]", "abundance fitness": "-0.392 ± 0.16"}
{"variant": "CFKERTRSLLAEWYLQDPYPNPSKKRELAQATGLTPTQVGNWFKNRRQRDR", "note": "[R11A]", "abundance fitness": "-0.131 ± 0.053"}
{"variant": "CFKERTRSLHREWYLQDPYPNPSKKRELAQATGLTPTQVGNWFKNRRQRDR", "note": "[L10H]", "abundance fitness": "-0.868 ± 0.16"}
{"variant": "CFKERTRSLWREWYLQDPYPNPSKKRELAQATGLTPTQVGNWFKNRRQRDR", "note": "[L10W]", "abundance fitness": "-1.03 ± 0.14"}
{"variant": "CFKERTRSLQREWYLQDPYPNPSKKRELAQATGLTPTQVGNWFKNRRQRDR", "note": "[L10Q]", "abundance fitness": "-0.972 ± 0.15"}
{"variant": "CFKERTRSLRREWYLQDPYPNPSKKRELAQATGLTPTQVGNWFKNRRQRDR", "note": "[L10R]", "abundance fitness": "-0.93 ± 0.077"}
{"variant": "CFKERTRSLFREWYLQDPYPNPSKKRELAQATGLTPTQVGNWFKNRRQRDR", "note": "[L10F]", "abundance fitness": "-0.824 ± 0.2"}
{"variant": "CFKERTRSLTREWYLQDPYPNPSKKRELAQATGLTPTQVGNWFKNRRQRDR", "note": "[L10T]", "abundance fitness": "-0.974 ± 0.23"}
{"variant": "CFKERTRSLAREWYLQDPYPNPSKKRELAQATGLTPTQVGNWFKNRRQRDR", "note": "[L10A]", "abundance fitness": "-0.895 ± 0.058"}
{"variant": "CFKERTRSLNREWYLQDPYPNPSKKRELAQATGLTPTQVGNWFKNRRQRDR", "note": "[L10N]", "abundance fitness": "-0.724 ± 0.28"}
{"variant": "CFKERTRSLMREWYLQDPYPNPSKKRELAQATGLTPTQVGNWFKNRRQRDR", "note": "[L10M]", "abundance fitness": "-0.381 ± 0.11"}
{"variant": "CFKERTRSLEREWYLQDPYPNPSKKRELAQATGLTPTQVGNWFKNRRQRDR", "note": "[L10E]", "abundance fitness": "-0.886 ± 0.084"}
{"variant": "CFKERTRSLVREWYLQDPYPNPSKKRELAQATGLTPTQVGNWFKNRRQRDR", "note": "[L10V]", "abundance fitness": "-1.01 ± 0.17"}
{"variant": "CFKERTRSLGREWYLQDPYPNPSKKRELAQATGLTPTQVGNWFKNRRQRDR", "note": "[L10G]", "abundance fitness": "-0.961 ± 0.16"}
{"variant": "CFKERTRSLCREWYLQDPYPNPSKKRELAQATGLTPTQVGNWFKNRRQRDR", "note": "[L10C]", "abundance fitness": "-0.88 ± 0.28"}
